According to the supplement of paper PMC10567573:

B1: RSPH3 (parent)
chain: VDVQTELYLEEIADRIIEVDMECQ
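Note: lentivirally expressed fusions sorted by FACS into six bins by GFP to DsRed ratio, PSI derived from sequencing read proportions per bin multiplied by bin number.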

Variants of: B1
Assay: protein stability index of a GFP-peptide fusion (GPS, HEK-293T) (PSI 1-6); higher = more stable
Details: c terminus: a fixed tail appended
For VDVKTELYLEEIADRIIEVDMECQ, the protein stability index was 2.43. Work on VDVATELYLEEIADRIIEVDMECQ yielded a protein stability index of 2.19. VDVHTELYLEEIADRIIEVDMECQ showed a protein stability index of 3.22. Work on VDVVTELYLEEIADRIIEVDMECQ yielded a protein stability index of 3.19. VDVYTELYLEEIADRIIEVDMECQ showed a protein stability index of 1.66. With VDVFTELYLEEIADRIIEVDMECQ the protein stability index was 3.48. In the case of VDVWTELYLEEIADRIIEVDMECQ, the protein stability index is reported as 2.27. VDVMTELYLEEIADRIIEVDMECQ gave a protein stability index of 2.07. Work on VDVNTELYLEEIADRIIEVDMECQ yielded a protein stability index of 1.85. With VDVQTEGYLEEIADRIIEVDMECQ the protein stability index was 4.11. VDVQTEYYLEEIADRIIEVDMECQ showed a protein stability index of 2.34. VDVQTEDYLEEIADRIIEVDMECQ showed a protein stability index of 2.71. In the case of VDVQTECYLEEIADRIIEVDMECQ, the protein stability index is reported as 3.01. With VDVQTEFYLEEIADRIIEVDMECQ the protein stability index was 1.79. In the case of VDVQTEIYLEEIADRIIEVDMECQ, the protein stability index is reported as 2.1. VDVQTESYLEEIADRIIEVDMECQ showed a protein stability index of 3.06. In the case of VDVQTEWYLEEIADRIIEVDMECQ, the protein stability index is reported as 2.04. VDVQTEPYLEEIADRIIEVDMECQ gave a protein stability index of 3.07. VDVQTEVYLEEIADRIIEVDMECQ showed a protein stability index of 1.45. Work on VDVQTEMYLEEIADRIIEVDMECQ yielded a protein stability index of 1.73. Variant VDVQTEEYLEEIADRIIEVDMECQ has a protein stability index of 4.3. For VDVQTETYLEEIADRIIEVDMECQ, the protein stability index was 3. For VDVQTEQYLEEIADRIIEVDMECQ, the protein stability index was 3.41. Work on VDVQTEHYLEEIADRIIEVDMECQ yielded a protein stability index of 3.38. Variant VDVQTEAYLEEIADRIIEVDMECQ has a protein stability index of 3.2. In the case of VDVQTENYLEEIADRIIEVDMECQ, the protein stability index is reported as 3.96. VDVQTERYLEEIADRIIEVDMECQ showed a protein stability index of 2.65. In the case of VDVQTEKYLEEIADRIIEVDMECQ, the protein stability index is reported as 3.96. FDVQTELYLEEIADRIIEVDMECQ showed a protein stability index of 1.55. CDVQTELYLEEIADRIIEVDMECQ gave a protein stability index of 2.36. In the case of ADVQTELYLEEIADRIIEVDMECQ, the protein stability index is reported as 3.1. In the case of LDVQTELYLEEIADRIIEVDMECQ, the protein stability index is reported as 1.72. Variant KDVQTELYLEEIADRIIEVDMECQ has a protein stability index of 2.79. In the case of DDVQTELYLEEIADRIIEVDMECQ, the protein stability index is reported as 3.3. In the case of WDVQTELYLEEIADRIIEVDMECQ, the protein stability index is reported as 2.44. With IDVQTELYLEEIADRIIEVDMECQ the protein stability index was 1.64. MDVQTELYLEEIADRIIEVDMECQ showed a protein stability index of 2.39. Work on RDVQTELYLEEIADRIIEVDMECQ yielded a protein stability index of 2.57. With PDVQTELYLEEIADRIIEVDMECQ the protein stability index was 3.11. Variant EDVQTELYLEEIADRIIEVDMECQ has a protein stability index of 3.11. For GDVQTELYLEEIADRIIEVDMECQ, the protein stability index was 2.86. With NDVQTELYLEEIADRIIEVDMECQ the protein stability index was 3.75. For HDVQTELYLEEIADRIIEVDMECQ, the protein stability index was 3.24. In the case of QDVQTELYLEEIADRIIEVDMECQ, the protein stability index is reported as 3.25. Variant TDVQTELYLEEIADRIIEVDMECQ has a protein stability index of 3.75. YDVQTELYLEEIADRIIEVDMECQ showed a protein stability index of 1.94. With SDVQTELYLEEIADRIIEVDMECQ the protein stability index was 3.88.
